Experimental data taken from patent US9056892B2, “Retrograde transport peptide and use of same for delivery to central nervous system” (UNIVERSITY OF WASHINGTON, priority 2011, dated 2015).
No end group written: not given here. *: point of attachment. Biotin = O=C1N[C@H]2[C@H](CS[C@H]2CCCCC(=O)*)N1

Experiments:
[1] = Delivery to the CNS after intraperitoneal injection; assay type: in vivo
Excerpt: The methods described above in Example 1 were modified to explore alternative modes of delivery to intramuscular injection.

[2] = system: neurons in the human spinal cord; experiment: Labeling of fresh frozen human spinal cord sections by biotinylated 2404 complexed with quantum dot streptavidin; assay type: binding; details: overall conclusion
Method: FIGS. 6A-6D. Photomicrographs showing TAxI-Streptavidin labels neurons in the adult human spinal cord. Steptavidin conjugated quantum dots (Qdots) were complexed with biotinylated TAxI peptide and incubated on human spinal cord tissue with anti-NeuN and anti-ChAT antibodies. FIG. 6A. Confocal micrographs of ventral root motor neurons stained immunofluorescently for NueN (prominent cytoplasmic stain) and ChAT (lighter cytoplasmic staining) and TAxI-Qdots (primarily visible in the nuclear region). FIG. 6B. High magnification images of the ventral horn stained by immunofluorescence. FIG. 6C. High magnification images of the dorsal grey matter stained by immunofluorescence. FIG. 6D. Spinal cord tissue pre-blocked with 10-fold excess of TAxI-peptide prior to immunofluorescence for NeuN and ChAT and TAxI-QDots.
The ability to target motor neurons that transport peptide-protein complexes and biologically active proteins into the spinal cord provides tremendous potential for utilizing and delivering novel therapeutics for the CNS. This Example examined whether the 2404-peptide could bind to neural elements within the fresh frozen sections of the human spinal cord. […] 2404-steptavidin labeled cells were not prominent in dorsal aspects of the spinal cord.

[3] = system: spinal cord motor neurons; experiment: Cre recombinase delivery into spinal cord after IM injection in Ai14 reporter mice (tdTomato expression); assay type: in vivo; details: 2.5 μg into gastrocnemius, one week post-injection
Method: To have utility as a therapeutic protein delivery system, the TAxI peptide must traffic cargo without rapid degradation or sequestration. To test for TAxI-mediated delivery of active enzyme to the spinal cord, we generated a series of Cre recombinase chimeras: wild-type Cre (Cre), Cre fused to the TAxI peptide (TAxI-Cre), and Cre fused to a mutated TAxI moiety (TAxI^Q-Cre). After purification, each recombinant Cre protein was injected (2.5 μg) into the gastrocnemius of the Ai14 reporter mice. In these mice, delivery of biologically active Cre recombinase results in td-Tomato expression due the excision of a floxed stop-codon.[27] One week post-injection, confocal microscopy was used to image spinal cords isolated after perfusion fixation. […] Furthermore, td-Tomato^+-cells projected into intermediate lamina of the spinal cord as well as into interneuron polls within multiple longitudinal segments, similar to efferent motor neurons (inset).
The coding sequence for Cre recombinase was obtained from the University of Washington Yeast Resource Center. The TAxI peptide sequence was added to the 5-prime end and both TAxI-Cre and wild-type Cre were subcloned into pRSETb (Invitrogen). To allow for expression and purifaction, each plasmid was transformed into BL21(D3)pLysS and grown in media supplemented with IPTG/X-gal (Promega). […]

For “ASGAQAR (GGCASGAQARCGG; disulfide (positions not given here); not fully specified (N-terminus, bridges); also: cyclic, mode not given here) [Clone 2404Q]”, the “delivery to the CNS” value [1] was “robust delivery to the CNS”.

For “QSQSQMR (Biotin-SACQSQSQMRCGGG; disulfide (positions not given here); not fully specified (bridges); also: cyclized, mode not given here) [Clone 2404]”, the “delivery to the CNS” value [1] was “robust delivery to the CNS” and the “binding and labeling of neurons in the human spinal cord” value [2] was “able to bind and label neurons in the human spinal cord specifically”.

In the case of TSTAPHLRLRLTSR [Clone 4042], the “delivery to the CNS” value [1] is reported as “robust delivery to the CNS”.

B1: Cre: wild-type Cre recombinase, recombinant 6×-his-tagged (protein, UniProt P06956 1-343, looked up)
Recombinase cre: MSNLLTVHQNLPALPVDATSDEVRKNLMDMFRDRQAFSEHTWKMLLSVCRSWAAWCKLNNRKWFPAEPEDVRDYLLYLQARGLAVKTIQQHLGQLNMLHRRSGLPRPSDSNAVSLVMRRIRKENVDAGERAKQALAFERTDFDQVRSLMENSDRCQDIRNLAFLGIAYNTLLRIAEIARIRVKDISRTDGGRMLIHIGRTKTLVSTAGVEKALSLGVTKLVERWISVSGVADDPNNYLFCRVRKNGVAAPSATSQLSTRALEGIFEATHRLIYGAKDDSGQRYLAWSGHSARVGAARDMARAGVSIPEIMQAGGWTNVNIVMNYIRNLDSETGAMVRLLEDGD
modifications: 6xHis tag
notes: wild-type Cre recombinase, recombinant 6×-his-tagged
For B1, the “tdTomato colocalization with NeuN and ChAT” value [3] was “did not induce tdTomato expression in either NeuN or ChAT-positive cells” and the “tdTomato expression in the lumbar spinal cord” value ([3]; confocal microscopy) was “small punctuate tdTomato^+-cells”.
